This is an account of results in US7033773B1, “Screening assays for G protein coupled receptor agonists and antagonists” (The General Hospital Corporation, priority 1997, dated 2006).

The target of assay [1] is T1, rat PTHR (Rattus norvegicus, UniProt P25961).
T1 construct: expressed in transfected cells; host or cells: LLC-PK1 porcine renal epithelial cells (EW5; also EW29, AR-C38, AR-B44)
T1 sequence (P25961 27-591): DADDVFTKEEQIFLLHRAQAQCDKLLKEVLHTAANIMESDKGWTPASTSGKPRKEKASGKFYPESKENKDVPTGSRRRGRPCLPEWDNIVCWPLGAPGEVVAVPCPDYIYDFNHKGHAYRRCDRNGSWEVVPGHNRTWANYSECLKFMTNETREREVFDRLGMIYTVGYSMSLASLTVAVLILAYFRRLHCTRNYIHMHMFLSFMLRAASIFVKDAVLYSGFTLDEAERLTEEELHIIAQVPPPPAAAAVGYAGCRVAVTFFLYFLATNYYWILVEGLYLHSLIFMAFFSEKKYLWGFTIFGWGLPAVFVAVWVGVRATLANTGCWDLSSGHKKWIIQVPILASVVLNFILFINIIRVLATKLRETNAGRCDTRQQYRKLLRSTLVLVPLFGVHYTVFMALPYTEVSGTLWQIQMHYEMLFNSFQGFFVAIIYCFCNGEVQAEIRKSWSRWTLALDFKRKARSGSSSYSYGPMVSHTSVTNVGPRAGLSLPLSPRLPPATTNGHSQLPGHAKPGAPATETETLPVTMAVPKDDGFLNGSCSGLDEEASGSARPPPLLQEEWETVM
Put plainly: u-PA secretion bioassay in LLC-PK1 cells expressing rat PTHR. The assay is classed as cell-based.

Assay [2] deals with T1, rat PTHR. Put plainly: IP3 production (PLC activation) in LLC-PK1 cells expressing rat PTHR. In kind it is cell-based. The method, then:
Cells were seeded into 24-well plates at a density of 2.5×10^5 cells/well and cultured for a further 2 days before study. The cells were labeled at 37° C. for 16 h before assay with 3 uCi/ml of [^3H]myo-inositol in assay medium (serum- and inositol-free DMEM (GIBCO-BRL, Grand Island, N.Y.) supplemented with 0.1% BSA). After washing the cells with prewarmed assay medium containing 30 mM LiCl, they were incubated with 0.25 ml of assay medium containing 30 mM LiCl and stimulators (or vehicle) at 37° C. for various intervals(1-30 min). IP3 formation was arrested by aspiration and immediate addition of 0.5 ml of ice-cold 5% TCA. The acid extracts then were extracted twice with two volumes of water-saturated ether and adjusted to pH 7.4 with concentrated NaOH and Tris base (final concentration=10 mM) prior to chromatography on AG 1×8 anion-exchange columns (Bio-Rad, Richmond, Calif.), as previously described (Guo, J., et al., Endocrinology 136:3884-3891 (1995)). After eluting other fractions (free [^3H]myo-inositol, glycerophosphate inositol, IP1, and IP2), IP3 fractions were collected and their content of radioactivity was determined by liquid scintillation spectrometry (Beckman, model LS 6000IC).
Responses to hPTH(1-34) or hPTH(1-31) (1000 nM) were measured in EW5 cells, which express 320,000 rat PTHRs per cell. Each value is the mean±SEM of a representative experiment performed in triplicate. Similar results were obtained in at least 3 individual experiments. The modest reduction in IP3 formation observed with hPTH(1-31) relative to hPTH(1-34) was confirmed in 3 other LLC-PK1 cell lines that expressed rat PTHRs (i.e. EW29, AR-C38 and AR-B44, which express 190,000, 630,000 and 800,000 PTHRs/cell, respectively), in which maximal IP3 formation after hPTH(1-31) (as % of hPTH(1-34) effect) was 75%, 77% and 64%, respectively.

Where [3] appears, read: EW5 cells, 320,000 rat PTHRs per cell, peptide 1000 nM, mean±SEM.

On to hPTH(1-31), for which the “u-PA Activity” value with rat PTHR [1] (setting [3]) is 41.2 ± 1.2 units/well. The “u-PA production at 16 hr (in words)” value in the assay with rat PTHR [1] (EW5 cells, 100 nM of either peptide) was “identical”. Moreover, the “maximal IP3 formation (as % of hPTH(1-34) effect)” value was found to be 64% with rat PTHR [2] (AR-B44 cells, 800,000 rat PTHRs/cell); 77% with rat PTHR [2] (AR-C38 cells, 630,000 rat PTHRs/cell); 75% with rat PTHR [2] (EW29 cells, 190,000 rat PTHRs/cell). Further, the “maximal IP3 generation relative to that by hPTH(1-34)” value in the assay with rat PTHR [2] (EW5 cells (and 3 other rPTHR-expressing cell lines)) is on record as “approximately 70%”. Moreover, in the assay with rat PTHR [2] (setting [3]), the “IP3 Formation” value was 316 ± 35 % of basal. Further, the “maximal PLC activation as % of the maximal response to hPTH(1-34)” value with rat PTHR [2] (LLC-PK1 cells that expressed rat PTHRs) came out at 60%. In the assay with rat PTHR [2] (via the rat PTHR), the “reduction of potency for PLC/PKC activation relative to hPTH(1-34)” value was 40%.
